Patent US20250186614A1, “COMPACT DRUG RESPONSIVE DOMAINS FOR REGULATION OF FUNCTION/ABUNDANCE AND DELIVERY OF POLYPEPTIDE PAYLOADS” (OBSIDIAN THERAPEUTICS, INC., priority 2022, published 2025)
Where two headings read alike, the source gives them in different places.

Tests used:
Type in all cases: cell-based
[1] = test system: Jurkat cells; experiment: Sirolimus (rapamycin) dose response of FKBP13 constructs stably transduced into Jurkat cells, flow cytometry; settings: for EC90 / Rapamycin FC: rapamycin, Table 14; for Rapamycin FC: fold change
Protocol: Normalized EC50 values were calculated from the mCherry normalized GFP MFI values, which accounted for any differences in mCherry intensity between samples.

[2] = test system: Jurkat cells; experiment: Tacrolimus dose response of FKBP13-AcGFP-mCherry constructs stably transduced into Jurkat cells, GFP MFI by flow cytometry; set-up: Basal: unit not given here; settings: for EC90 / Tacrolimus FC: Table 14; for Tacrolimus FC: fold change; for Basal / FC / At 10 uM: FIG. 44
Outline: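 Jurkat E6-1 cells lentivirally transduced with FKBP13-AcGFP-mCherry constructs to 10-25% mCherry+ (day 5) were dosed with tacrolimus. GFP geometric MFI in mCherry+ cells was measured by flow cytometry and fitted to dose-response curves.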

[3] = Example 4: dose response of FKBP constructs 160-255, Ec50, Ec90 and fold change (raw and normalized to mCherry); settings: for FC (fold change): fold change during initial analysis
Protocol: Additional experiments were performed for constructs FKBP-160-292.

[4] = FKBP constructs 160-255, not normalized, read-out: EC90
[5] = normalized to mCherry, read-out: EC90 (Norm)
[6] = normalized, read-out: Rapamycin EC90 (Norm)
[7] = read-out: Tacrolimus EC90 (Norm), tacrolimus, normalized
[8] = read-out: Tacrolimus EC90, tacrolimus

| Molecule | EC50 (tacrolimus)/ EC50 (rapamycin) ([1]; ratio of Table 7 and Table 8 EC50 values, Jurkat cells) | EC90 ([1]; read-out: Rapamycin EC90) [nM] | EC90 [2, 8] [nM] | Fold Change ([1]; rapamycin (sirolimus), Jurkat cells stably transduced, Table 8) | Fold change (tacrolimus)/ Fold change (rapamycin) ([1]; ratio of Table 7 and Table 8 fold changes, Jurkat cells) | Fold Change ([2]; tacrolimus, Jurkat cells stably transduced, Table 7) | EC90 [3, 4] [nM] | FC (fold change) [3] | EC90 [3, 5] [nM] | Rapamycin FC [1] | EC90 [1, 6] [nM] | EC90 [2, 7] [nM] | Tacrolimus FC ([2]; tacrolimus) | Basal [2] | FC [2] | At 10 uM [2] |
| --- | --- | --- | --- | --- | --- | --- | --- | --- | --- | --- | --- | --- | --- | --- | --- | --- |
| FKBP-166 (protein, Description of sequence: Construct Name: FKBP-166; Mutation(s): Q72R S79W Q84E A117W DRD M54A V85R) HCPIKSRKGDVLHAHYTGKLEDGTEFDSSLPRNQPFVFWLGTGERIKGWDQGLLGMCEGEKRKLVIPSELGYGERGWPPKIPGGATLVFEVELLKIER |  | 1640 | 220 |  |  |  | 220 | 46.0 | 223 | 15.7 | 1580 | 223 | 46 |  |  |  |
| FKBP-171 (protein, Description of sequence: Construct Name: FKBP-171; Mutation(s): Q72R Q84E A117W DRD M54A D50L) HCPIKSRKGLVLHAHYTGKLEDGTEFDSSLPRNQPFVFSLGTGEVIKGWDQGLLGMCEGEKRKLVIPSELGYGERGWPPKIPGGATLVFEVELLKIER |  | 16000 | 8160 |  |  |  | 8160 | 60.3 | 10100 | 14.1 | 18000 | 10100 | 60.3 |  |  |  |
| FKBP-181 (protein, Description of sequence: Construct Name: FKBP-181; Mutation(s): Q72R Q84E A117W V85R DRD M54A D50L) HCPIKSRKGLVLHAHYTGKLEDGTEFDSSLPRNQPFVFSLGTGERIKGWDQGLLGMCEGEKRKLVIPSELGYGERGWPPKIPGGATLVFEVELLKIER |  | 11800 | 14100 |  |  |  | 14100 | 52.0 | 5060 | 15.5 | 11500 | 5060 | 52 |  |  |  |
| FKBP-168: FKBP13 DRD-AcGFP construct of Table 10 (protein, Description of sequence: Construct Name: FKBP-168; Mutation(s): Q72R T82W Q84R A117W DRD M54A V85R) HCPIKSRKGDVLHAHYTGKLEDGTEFDSSLPRNQPFVFSLGWGRRIKGWDQGLLGMCEGEKRKLVIPSELGYGERGWPPKIPGGATLVFEVELLKIER |  | 1380 | 342 |  |  |  | 342 | 60.2 | 351 | 18 | 1330 | 351 | 60.2 | 72.7 | 60.19 | 4376 |
| FKBP-177 (protein, Description of sequence: Construct Name: FKBP-177; Mutation(s): Q72R Q84E A117W DRD M54AL80G) HCPIKSRKGDVLHAHYTGKLEDGTEFDSSLPRNQPFVFSGGTGEVIKGWDQGLLGMCEGEKRKLVIPSELGYGERGWPPKIPGGATLVFEVELLKIER |  | 5280 | 18700 |  |  |  | 18700 | 22.3 | 23900 | 2.3 | 6330 | 23900 | 22.3 |  |  |  |
| FKBP-169 (protein, Description of sequence: Construct Name: FKBP-169; Mutation(s): Q72R T82W Q84E A117W DRD M54A) HCPIKSRKGDVLHAHYTGKLEDGTEFDSSLPRNQPFVFSLGWGEVIKGWDQGLLGMCEGEKRKLVIPSELGYGERGWPPKIPGGATLVFEVELLKIER |  | 1390 | 448 |  |  |  | 448 | 50.1 | 493 | 10.8 | 1420 | 493 | 50.1 |  |  |  |
| FKBP-167: FKBP13 DRD-AcGFP construct of Table 10 (protein, Description of sequence: Construct Name: FKBP-167; Mutation(s): Q72R S79W Q84R A117W DRD M54A V85R) HCPIKSRKGDVLHAHYTGKLEDGTEFDSSLPRNQPFVFWLGTGRRIKGWDQGLLGMCEGEKRKLVIPSELGYGERGWPPKIPGGATLVFEVELLKIER |  | 1720 | 348 |  |  |  | 348 | 46.8 | 334 | 11.3 | 1710 | 334 | 46.8 | 96 | 47.22 | 4533 |

More lines, main results first:

| EC50 (tacrolimus)/ EC50 (rapamycin) ([1]; ratio of Table 7 and Table 8 EC50 values, Jurkat cells) | EC90 ([1]; read-out: Rapamycin EC90) [nM] | EC90 [2, 8] [nM] | Molecule | Fold Change ([1]; rapamycin (sirolimus), Jurkat cells stably transduced, Table 8) | Fold change (tacrolimus)/ Fold change (rapamycin) ([1]; ratio of Table 7 and Table 8 fold changes, Jurkat cells) | Fold Change ([2]; tacrolimus, Jurkat cells stably transduced, Table 7) | EC90 [3, 4] [nM] | FC (fold change) [3] | EC90 [3, 5] [nM] | Rapamycin FC [1] | EC90 [1, 6] [nM] | EC90 [2, 7] [nM] | Tacrolimus FC ([2]; tacrolimus) | Basal [2] | FC [2] | At 10 uM [2] |
| --- | --- | --- | --- | --- | --- | --- | --- | --- | --- | --- | --- | --- | --- | --- | --- | --- |
| 0.55 |  |  | FKBP-152: FKBP13 DRD Q72R, Q84W, A117W, M54A; SEQ ID NO: 102 (protein, Description of sequence: FKBP13-AcGFP-mCherry Fusion; Construct Name: FKBP-152; FKBP13 DRD in Construct : FKBP13 (mutated to match FKBP12 active site Q72R Q84W A117W) (DRD M54A)) HCPIKSRKGDVLHAHYTGKLEDGTEFDSSLPRNQPFVFSLGTGWVIKGWDQGLLGMCEGEKRKLVIPSELGYGERGWPPKIPGGATLVFEVELLKIER | 23.17 | 1.31 | 30.34 |  |  |  |  |  |  |  |  |  |  |
|  | 785 | 133 | FKBP-170 (protein, Description of sequence: Construct Name: FKBP-170; Mutation(s): Q72R T82W Q84E A117W DRD M54A V85R) HCPIKSRKGDVLHAHYTGKLEDGTEFDSSLPRNQPFVFSLGWGERIKGWDQGLLGMCEGEKRKLVIPSELGYGERGWPPKIPGGATLVFEVELLKIER |  |  |  | 133 | 47.6 | 138 | 16.1 | 818 | 138 | 47.6 |  |  |  |
|  | 16800 | 22300 | FKBP-178 (protein, Description of sequence: Construct Name: FKBP-178; Mutation(s): Q72R Q84E A117W DRD M54AF78S) HCPIKSRKGDVLHAHYTGKLEDGTEFDSSLPRNQPFVSSLGTGEVIKGWDQGLLGMCEGEKRKLVIPSELGYGERGWPPKIPGGATLVFEVELLKIER |  |  |  | 22300 | 36.4 | 28400 | 2.9 | 151000 | 28400 | 36.4 |  |  |  |
|  | 2140 | 1050 | FKBP-172 (protein, Description of sequence: Construct Name: FKBP-172; Mutation(s): Q72R Q84E A117W DRD M54A M96W) HCPIKSRKGDVLHAHYTGKLEDGTEFDSSLPRNQPFVFSLGTGEVIKGWDQGLLGWCEGEKRKLVIPSELGYGERGWPPKIPGGATLVFEVELLKIER |  |  |  | 1050 | 63.1 | 1310 | 21.3 | 2290 | 1310 | 63.1 |  |  |  |
